Consider one molecule from paper PMC2234240 (The Journal of Cell Biology, 2008).

This assay concerns the target T1, GST-Rsa1p (yeast (S. cerevisiae), UniProt Q08932 1-381).
T1 sequence: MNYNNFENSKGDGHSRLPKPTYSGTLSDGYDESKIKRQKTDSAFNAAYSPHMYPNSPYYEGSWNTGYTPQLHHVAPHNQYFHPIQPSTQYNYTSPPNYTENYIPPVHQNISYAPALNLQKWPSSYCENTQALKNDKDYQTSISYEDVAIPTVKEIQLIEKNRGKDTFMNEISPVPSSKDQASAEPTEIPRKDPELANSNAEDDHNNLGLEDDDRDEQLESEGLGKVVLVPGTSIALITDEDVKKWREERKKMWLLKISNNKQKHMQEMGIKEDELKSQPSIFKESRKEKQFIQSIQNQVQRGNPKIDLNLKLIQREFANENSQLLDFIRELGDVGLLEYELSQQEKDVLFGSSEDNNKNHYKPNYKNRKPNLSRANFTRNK
Description: pull-down.

B1: recombinant Snu13p (natural protein)
chain: MSAPNPKAFPLADAALTQQILDVVQQAANLRQLKKGANEATKTLNRGISEFIIMAADCEPIEILLHLPLLCEDKNVPYVFVPSRVALGRACGVSRPVIAASITTNDASAIKTQIYAVKDKIETLLI
As for B1, the binding result was “binds”.
